Laboratory results as given in patent US20100292303A1, “GENE EXPRESSION PROFILE FOR PREDICTING OVARIAN CANCER PATIENT SURVIVAL” (priority 2007, published 2010).
Values belong to the molecule of their own block, whether it stands above or below them.

Columns and labels:
[1] = test system: ovarian cancer cells SKOV3; assay: SKOV3 ovarian tumor growth and microvessel density in nude mice; format: in vivo
Method: The MAGP2 siRNA molecule had the following sequence: 5′-[…]-3′ (sense; SEQ ID NO: 1) and 5′-[…]-3′ (antisense; SEQ ID NO: 2). Five stable clones were selected for each group. A total of 5×10^5 cells from each clone were injected subcutaneously into the posterior neck region of 5 nude mice (6 to 8 week-old female nude mice, Charles River, Mass.). After 4 weeks, the mice were sacrificed and the tumors developed from each mouse were removed and weighed. They samples were subsequently fixed in formalin and processed for histological evaluation. MAGP2 expression in tumor tissues was evaluated using a rabbit anti-human MAGP2 antibody and the microvessel density was determined by immunolocalization of CD34+ blood vessels using a goat anti-mouse polyclonal antibody (FIG. 8A). Significant difference in the weight of the tumors between the MAGP2 siRNA and the control group were found as determined by Mann-Witney U test (FIG. 8B). A p value <0.05 was considered as significant.

αvβ3 integrin receptor = αvβ3 integrin receptor (human, UniProt P06756 31-1048; P05106 27-788); assay: cell-based or functional assay
Chain of αvβ3 integrin receptor (P06756 31-1048, chain 1 of 2): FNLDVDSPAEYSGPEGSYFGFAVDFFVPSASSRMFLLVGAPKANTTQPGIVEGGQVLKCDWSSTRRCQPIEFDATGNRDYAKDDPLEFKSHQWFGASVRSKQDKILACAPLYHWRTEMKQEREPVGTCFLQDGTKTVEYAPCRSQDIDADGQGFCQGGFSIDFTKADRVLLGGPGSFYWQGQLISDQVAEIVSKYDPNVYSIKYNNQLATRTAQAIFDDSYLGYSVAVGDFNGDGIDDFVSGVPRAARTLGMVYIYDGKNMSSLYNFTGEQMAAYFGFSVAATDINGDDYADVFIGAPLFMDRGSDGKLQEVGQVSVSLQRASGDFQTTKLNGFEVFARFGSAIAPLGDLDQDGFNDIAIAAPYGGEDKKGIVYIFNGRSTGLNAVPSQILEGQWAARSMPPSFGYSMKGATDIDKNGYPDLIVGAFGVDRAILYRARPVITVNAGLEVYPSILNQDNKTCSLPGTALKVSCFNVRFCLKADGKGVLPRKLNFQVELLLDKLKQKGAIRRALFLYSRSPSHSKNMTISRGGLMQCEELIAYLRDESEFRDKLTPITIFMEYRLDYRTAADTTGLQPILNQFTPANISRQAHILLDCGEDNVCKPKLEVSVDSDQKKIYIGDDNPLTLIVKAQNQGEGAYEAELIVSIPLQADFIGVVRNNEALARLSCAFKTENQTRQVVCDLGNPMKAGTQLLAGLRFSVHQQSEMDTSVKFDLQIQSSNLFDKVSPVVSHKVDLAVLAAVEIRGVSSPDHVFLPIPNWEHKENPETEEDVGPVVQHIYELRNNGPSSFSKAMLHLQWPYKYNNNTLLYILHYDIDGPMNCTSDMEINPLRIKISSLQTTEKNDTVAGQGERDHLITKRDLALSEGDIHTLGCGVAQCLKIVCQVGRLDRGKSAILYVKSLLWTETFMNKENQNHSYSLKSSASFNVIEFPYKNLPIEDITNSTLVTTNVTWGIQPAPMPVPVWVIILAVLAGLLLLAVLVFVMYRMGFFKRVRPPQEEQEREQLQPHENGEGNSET
Chain of αvβ3 integrin receptor (P05106 27-788, chain 2 of 2): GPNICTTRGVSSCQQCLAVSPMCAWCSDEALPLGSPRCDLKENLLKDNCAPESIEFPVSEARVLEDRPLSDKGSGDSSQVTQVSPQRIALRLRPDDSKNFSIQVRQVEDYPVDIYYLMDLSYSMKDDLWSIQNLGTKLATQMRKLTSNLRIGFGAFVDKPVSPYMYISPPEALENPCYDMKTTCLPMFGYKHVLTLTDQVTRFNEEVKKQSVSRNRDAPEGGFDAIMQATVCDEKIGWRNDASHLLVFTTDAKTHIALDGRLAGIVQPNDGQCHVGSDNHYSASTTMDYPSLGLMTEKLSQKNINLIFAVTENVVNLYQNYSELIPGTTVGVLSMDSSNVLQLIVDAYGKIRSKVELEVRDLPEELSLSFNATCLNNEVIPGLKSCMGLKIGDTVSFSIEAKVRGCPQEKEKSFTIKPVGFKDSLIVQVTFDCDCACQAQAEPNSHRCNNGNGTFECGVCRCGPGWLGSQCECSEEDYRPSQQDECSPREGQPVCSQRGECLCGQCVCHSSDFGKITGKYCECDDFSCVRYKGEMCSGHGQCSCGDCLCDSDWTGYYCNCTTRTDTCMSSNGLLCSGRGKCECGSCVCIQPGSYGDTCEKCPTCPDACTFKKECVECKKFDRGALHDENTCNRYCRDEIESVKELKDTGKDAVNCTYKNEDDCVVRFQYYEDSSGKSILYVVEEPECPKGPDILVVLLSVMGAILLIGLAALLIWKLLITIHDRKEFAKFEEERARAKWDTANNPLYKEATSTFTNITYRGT

A224 cells = assay: A224 ovarian cancer cell adhesion on recMAGP2 coated wells; format: cell-based; settings: plated on recMAGP2 coated wells, relative to control wells; P<0.0005
Source text: (§1) Cell Lines and Culture Conditions. A224, UCI107 and OVCA429 ovarian cancer cell lines were maintained in RPMI (Invitrogen Life Technologies Inc, Carlsbad, Calif.) supplemented with 10% fetal bovine serum (Gemini Bio-Products, Woodland, Calif.) and 1% L-glutamine (Invitrogen Life Technologies).
(§2) Screening a serous ovarian cancer cell line panel for MAGP2 expression by qRT-PCR (FIG. 4A) and western blot, as well as αvβ3 receptor status through FACs analysis (FIG. 4B, select cell lines only), facilitated the selection of cell lines amenable for downstream examination. Quantitative RT-PCR was performed as described in Example 1. Among cell lines expressing MAGP2, only the SKOV3 cell line co-expressed the αvβ3 receptor. Two cell lines, A224 and OVCA429, were positive for αvβ3, yet lacked measurable levels of MAGP2. These cell lines were chosen for subsequent analyses involving the recombinant protein along with UCI107, which was negative for both the receptor and MAGP2.
(§3) The effect of recMAGP2 on adhesion was evaluated for A224 and UCI107 cell lines.

UCI107 cells = assay: UCI107 ovarian cancer cell adhesion on recMAGP2; format: cell-based; settings: UCI107 negative for αvβ3 receptor and MAGP2
Source text: as §1, §2, §3

OVCA429 cells = assay: OVCA429 cell survival under increasing concentrations of recMAGP2; format: cell-based; settings: 200 ng/ml recMAGP2, 96 hours; P<0.01
Source text: as §1
Based on the pathway analysis, αvβ3 mediated signaling was implicated in ovarian tumor cell survival through the stimulation of critical cell-cycle checkpoint regulators. To assess this observation, OVCA429 cells were cultured under increasing concentrations of purified recMAGP2 and harvested at 24-hour intervals.

HUVE cells [2] = assay: HUVE cell motility assay (FluoroBlok insert, recMAGP2 as chemoattractant); format: cell-based, human; settings: 2.5 hours, compared to medium alone, P<0.05
Method: Cell motility was evaluated for HUVE cells (5×10^4) by adding them to the top chamber of a BD Falcon HTS FluoroBlok insert with a PET membrane with eight […] pore (BD Biosciences) in […] of medium with 0.2% FBS. The inserts were placed into the bottom chamber wells of a 24-well plate containing medium with increasing concentrations of recombinant MAGP2. After 2.5 hr, cells that migrated through the pores of the membrane to the bottom chamber were stained with calcein […] (Molecular Probes, Eugene, Oreg.) in PBS for 30 min at 37° C. The fluorescence of migrated cells was quantified using a fluorometer set at 485 nm excitation and 530 nm emission. Parallel control experiments were performed using the MAGP2 elution buffer. HUVECs motility was mediated through αvβ3 integrin, cells were pre-treated either with an anti-αvβ3 integrin antibody (Santa Cruz Laboratories #sc-7312) or with an equal amount of IgG (ICL #RS-90G1) for 30 minutes before the addition of 100 ng/ml MAGP2. The motility assay was then performed as described above.
(§4) To determine the effect of recMAGP2 on the HUVE cell motility, recMAGP2 was used as a chemoattractant. […] Similarly, exposing HUVE cells seeded onto Matrigel matrix to reMAGP2 stimulated a 2-fold increase in invasion (P<0.05) (FIG. 5D).

HUVE cells [3] = assay: HUVE cell invasion through Matrigel; format: cell-based, human; settings: cells seeded onto Matrigel matrix; P<0.05
Method: (§5) HUVE cell invasion was measured by adding cells (5×10^4) to the top chamber of a BD Falcon HTS FluoroBlok insert with a PET membrane coated with a thin layer of Matrigel. To evaluate the effect of MAGP2 on HUVE cell proliferation, 1,000 HUVECs/well were plated in 8 wells of a 96-well plate in EBM2 with 2.0% FBS. The next day the media were removed and replaced with 0.2% FBS media with elute buffer control or with recombinant MAGP2 protein at 4.5 ng/ml. After 2 days, elute control or MAGP2 was added a second time. Cell number was quantified via MTT assay.
as §4

HUVE cells [4] = assay: HUVE cell survival under low serum (MTT assay); format: cell-based, human; settings: 5 days, P<0.005
Method: as §5
In addition to motility and invasion, HUVE cell survival under low serum conditions was prolonged by recMAGP2.

FAK = FAK phosphorylation (tyrosine 407) western blot in HUVE cells; format: cell-based, human; settings: 100 ng/ml, 30 minutes
Method: Western Blot Analysis. To assess FAK phosphorylation in HUVE cells, cells were plated on 60 mm^2 dishes treated with 100 ng/ml MAGP2 recombinant protein or elute buffer control. After 30 minutes the cells were washed with 4° C. PBS and lysed in RIPA buffer containing 0.1% SDS and proteinase inhibitors. Western blotting was then performed with 5 μg of protein under denaturing conditions on a 4-12% NuPAGE gel and transferred to a PVDF membrane. The membrane was blocked in 5% nonfat milk for 1 hr at RT, probed with a 1:1000 dilution of anti-FAK[pY^407] rabbit polyclonal 1° antibody (Biosource) for 2 hr at RT. The blot was washed 3 times for 5 min with TBST and probed with a 1:2000 dilution of goat anti-rabbit HRP conjugated 2° antibody (Amersham) for 1 hr at RT. The blot was washed 3 times for 10 min with TBST and bands were detected via chemiluminscence using an ECL kit (Amersham).
Since FAK is a mediator of αvβ3 signaling, the phosphorylation status of FAK in recMAGP2 treated cells was confirmed. Using a phosphorylation specific antibody recognizing tyrosine 407, a western blot comparing phospho-FAK to total FAK was completed for both treated and untreated HUVE cell isolates.

HUVE cells [5] = assay: Ca2+ oscillation in HUVE cells (fluo-4/AM, confocal microscope); format: cell-based, human
Method: To identify the mechanism underlying the stimulation of FAK by recMAGP2, Ca^2+ oscillation was assessed in treated HUVE cells. […] This may account in part for the enhanced motility and survival of HUVE cells as described in the pathway analysis.

HUVE cells [6] = assay: Affymetrix U133 Plus 2.0 microarray of recMAGP2 treated HUVE cells; format: cell-based, human; settings: P<0.01 and fold-change ≧1.5; treated n=3 vs untreated n=3
Source text: The marked effect of recMAGP2 on HUVE cell behavior indicated a change in cellular regulation had taken place possibly affecting gene expression. To explore the consequences of recMAGP2 induced signaling, Affymetrix® U133 Plus 2.0 microarrays were completed for a series of recMAGP2 treated (n=3) and untreated (n=3) HUVE cell isolates. A total of 274 probe sets were identified for pathway analysis in cells exposed to recMAGP2 (P<0.01 and fold-change ≧1.5) (FIG. 6A). […] Deregulation of these genes may lead to a reduction in vessel integrity permitting endothelial cell migration and neovascularization.

Molecule: MAGP2 siRNA: siRNA 5′-ACCGGTTAAACAATGCATTCAT-3′ (sense; SEQ ID NO: 1) and 5′-ATGAATGCATTGTTTAACCGGC-3′ (antisense; SEQ ID NO: 2) (listed as DNA, chemistry not fully specified)
weight of the tumors ([1]; SKOV3 stably transfected, subcutaneous, nude mice, 4 weeks, vs empty vector, Mann-Witney U test p<0.05): significantly decrease the weight | CD34 (microvessel density) in tumor tissues ([1]; immunolocalization of CD34+ blood vessels, FIG. 8A): decreased | MAGP2 expression in tumor tissues ([1]; immunostaining, FIG. 8A): decreased MAGP2 expression

adhesion of HUVE cells plated on recMAGP2 (αvβ3 integrin receptor): 2.5 fold
B1: purified recombinant MAGP2 (microfibril associated glycoprotein 2) (ligand, UniProt Q13361 22-173, looked up)
chain: IPLGVNSQRGDDVTQATPETFTEDPNLVNDPATDETVLAVLADIAPSTDDLASLSEKNTTAECWDEKFTCTRLYSVHRPVKQCIHQLCFTSLRRMYIVNKEICSRLVCKEHEAMKDELCRQMAGLPPRRLRRSNYFRLPPCENVDLQRPNGL
A224 cell adhesion (A224 cells): increase in adhesion | UCI107 cell adhesion (UCI107 cells): only a modest increase in adhesion at high concentrations | OVCA429 cell survival (OVCA429 cells): significant difference in survival | HUVE cell motility (HUVE cells [2]): increased the motility of the cells in a dose dependent manner | increase in HUVE cell invasion (HUVE cells [3]): 2 fold | HUVE cell survival under low serum conditions (HUVE cells [4]): prolonged | phosphorylated FAK (tyrosine 407) versus total FAK (FAK): increase in phosphorylated FAK | [Ca2+]I levels (HUVE cells [5]; HUVE cells loaded with fluo-4/AM): immediate increase | [Ca2+]I oscillation frequency (HUVE cells [5]; individual HUVE cells): 100 s/cycle | probe sets identified in cells exposed to recMAGP2 (HUVE cells [6]): 274
